In paper PMC3481325:

Molecular target: HLA A*0201 (soluble, the MHC part of the HLA A*0201-peptide complexes)
Assay: SPR

[…] peptide (Melan A 26-35)
t½ of the HLA A*0201-peptide complex: 8 h
